Data reported in the DeepSol protein solubility set.

Assay: soluble on expression in E. coli; label from the status in PepcDB or PDB records

Q: With “MGSDKIHHHHHHMNEAAKQLYITQPSLSNAVRNLETEMGIQIFIRNPKGITLTKDGMEFLSYARQILEQTALLEERYKGDNTSRELFSVSSQHYAFVVNAFVALFNGTDMTQYELFLRETRTWEIIDDVKNFRSEIGVLFLNSYNRDVLTKLFDDNSLIATTLFTTTPHIFVSKSNPLANRKKLNMKDLEDYPYLSYDQGLHNSFYFSEEMMSQIPHPKSIVVSDRATLFNLMIGLDGYTVATGILNSKLNGDEIVAIPLDVDDVIDIVYIRHDKANLSKMGQKFIDYLLEEVSFNHKNKQS” as the sequence, how does the “soluble on expression in E. coli” value read?
A: not soluble

Q: Which “soluble on expression in E. coli” value does the source give for “ASWSHPQFEKSGGGGGLVPRGSKRADAGTASALAASQLPQATMPGKSMVAIAGSSYQGQNGLAIGVSRISDNGKVIIRLSGTTNSQGKTGVAAGVGYQW” here?
A: soluble

Q: For “MGSDKIHHHHHHMKPSIYSLTRNDLIAWTIEHGEKKFRATQIWDWLYRKRVQSFEEMTNLSKDFIALLNENFLVNPLKQRIVQESADGTVKYLFELPDGMLIETVLMRQHYGLSVCVTTQVGCNIGCTFCASGLIKKQRDLNNGEITAQIMLVQKYFDERGQGERISHVVVMGIGEPFDNYDNVLKFLRTINDDNGLAIGARHITVSTSGLAHKIRDFANEGVQVNLAVSLHAPNNELRSSIMRINRSFPLEKLFAAIEYYIETTNRRVTFEYIMLNGVNDSPENAQELADLTKKIRKLSYVNLIPYNPVTEHDQYSRSPKERVDAFYDVLKKNGVNCVVRQEHGTDIDAACGQLRSNTMKRDREKATAGTAQ”, which “soluble on expression in E. coli” value is on record?
A: not soluble

Q: Which “soluble on expression in E. coli” value does the source give for “SNASVRPSLWEFSSRVGMHVGASTPVPVPQAMEHVYAWYPRLNPMVQLSASRRLLAGSPWAVNVGIAVEKKGMEATTRVKDMKVAIVSDSPYAGNPDEEYPGLFTGDNNTEIRLGYLTIPVQAEYNMLKDRLKLRGGLYTSLLLESSFRVIIDGTMVYDDPKLGTAQMDLRELNFSDKIKGADFGVIIGADYYFARQ” here?
A: not soluble

Q: With “EMLYRSVDNRDIPQAMPKTIQALAHWDYQGLPDSEVVEAFSVELLALYETKALPKIANRMNIEVSGMRSLMMKTGRKLSRLEVLPTSIKELSRLDKRWADAKHWVAFKNLSGAITVNHYLAALDMQVNEMGEIEAQPEKRQIYVDLFFKT” as the sequence, how does the “soluble on expression in E. coli” value read?
A: not soluble

Q: With “MGSDKIHHHHHHMNYTQGSLFENIENIPLAGRMRPRNLSDYIGQEHILEKGKALRNMLEKDSITSMILWGPPGVGKTTLAMIIASTTKCNFVEFSAATSGIKEIKDIMIKAEKDRLFGIRTLLFIDEIHRFNKSQQDTFLPHVEKGDIILIGATTENPSFEVNSALLSRCRVFVLKPLSNNDIVKLLKNALTDTRGFKNKNIQISEDLLTLIAVYSNGDARTALNVLEMAVLSSKLEHGVVTINKGILEDCMQNKALIYDKNGEEHYNLISALHKSMRNSDVDAAIYWLARMLEGGEDPLYIARRLIRFSSEDIGVADTNALNVTVNVYNSCHYIGMPECSVNLTEAVVYLSLAPKSNSIYMAYEKAKKDAKETLASGVPLHLRNAPTKLMSDLGYSKGYKYAHDFDNKVVDMQCLPDNLKDEKYYFPTTEGREKLFKERLHYIKKKKHTVNKSI” as the sequence, how does the “soluble on expression in E. coli” value read?
A: not soluble

Q: Which “soluble on expression in E. coli” value does the source give for “MSDAQGNTLTEEELAMLRAGDEENDNTDTIMVIRVPNDGSSATAVSIPRDTYIHDDDYGNMKINGVYGAYKDARRAELMEQGFTNESELETRAKDAGREGLIDAVSDLTGITVDHYAEVGLLGFVLLTDAVGGVEVCLNNAVDEPLSGANFPAGRQTLGGSDALSYVRQRHDLPRGDLDRIVRQQSYMASLVNQVLSSGTLTNPAKLSALADAVTRSVVIDEGWEIMSFATQLQNLAGGNVTFATIPVTSIDGTGDYGESVVTIDVNQVHAFFQEALGEAEPAPEDGSDDQSADQAPDLSEVEVHVLNASYVEGLANGIAAQLQELGYSIAETGNAAEGLYYESQILAAEEDSAKALAISEALGGLPIVANSSLDDNTVIVVSAGDYAGPTAEANALEHHHHHH” here?
A: soluble

Q: For “MGSDKIHHHHHHMMQNNPFPYSNTEKRYHTLNYHLREHFGHKVFKVALDGGFDCPNRDGTVAHGGCTFCSAAGSGDFAGNRTDDLITQFHDIKNRMHEKWKDGKYIAYFQAFTNTHAPVEVLREKFESVLALDDVVGISIATRPDCLPDDVVDYLAELNERTYLWVELGLQTVHERTALLINRAHDFNCYVEGVNKLRKHGIRVCSHIINGLPLEDRDMMMETAKAVADLDVQGIKIHLLHLLKGTPMVKQYEKGKLEFLSQDDYVQLVCDQLEIIPPEMIVHRITGDGPIELMIGPMWSVNKWEVLGAINKELENRGSYQGKFFQRLEEESAL”, which “soluble on expression in E. coli” value is on record?
A: not soluble

Q: Which “soluble on expression in E. coli” value does the source give for “MGSDKIHHHHHHEGNATTTSYFLNDQQAIDAIDGLYERFHQEGCYGRELFWEQGAACDIVWGRTRGYNSLATLAYTGDESPLRDVFSRMYSTMSRANWIIQELVKKEKGTTLTAVEKRSLGEAYFSRGWAHYLIAYRYGTDKQGVPFVRYEDFPDDYDNSIPPQQATVMDNYKLIIEDMDKAIAYLPIFESYDADNRGRAHQAAAVAFKAKTYAYWATWDATQWNNVIEMVNQLENNYNRDLAPTFAELFSSDLKDYWNAEYLWTIPSIGGALPGGTEFPGIILENKGWGKYNGWGQMKPSYDIYEEMAKDGKGNDRLVRSILEYNQEFPFFGETRKFWSTSDLEAGFMINKYMDAFKYSDPVGEGAVSANGDWPTVRVNFPIIRFAEMLLFRAEAYLMTGQADKATADINRIRLRSNLTPLTGTATMKDLYHERRCELAFEFTDHLFDLKRWNRSSNADIKTLADKELNAHPRIRRYEDRANPESAFTIIGYEDYTNKNAYQAHMMVFPYPSEEITKSNGQLKQNEGY” here?
A: not soluble

Q: With “MREMTADPYLGKYITCVSARSTDKEILKKAQDGGIATALMVYALEEGIIDGTIVAGEGDRPWEPRPIVAMSREDILKARGTKYSISPQIAWLKEATRSFGLDKVGVTGVCCQMQAVRKAQLYPINMRDVPGKVALTVGLFCMENFPYKSLQTIVEDHAAQSLGSVKKMEITKGKFWVHTERGNVSTVPLKATHKYEQPGCHVCLDYVSSLADISTGSVGSPDGWSTVFIRTKKGNEVWSKAVAAGMFETKPIEDVKPGLELLTKLAKEKIDKNRKTLEERRNFGVNKALRDPYAAAALEHHHHHH” as the sequence, how does the “soluble on expression in E. coli” value read?
A: not soluble

Q: Which “soluble on expression in E. coli” value does the source give for “SNAMKTEKDKMLAGEMYIADDEELVADRVEAKRLTRLYNEAVETGDERRFTLLNQLLGSSADGKAQINPDFRCDYGYNIHVGKSFFANFNCVILDVCEVRIGDHCMFAPGVHIYTATHPLHPVERNSGKEYGKPVKIGNNVWVGGGAIINPGVSIGDNAVIASGAVVTKDVPNNVVVGGNPAKVIKTIEE” here?
A: soluble

Q: Which “soluble on expression in E. coli” value does the source give for “MPCAETFGSEYFLAQGSPVNSTATPPEPLPPFLQPGDRVLLFDGVCKLCNASVRFVIRHDSQRRIKLASVQSPQGQALLAWFGLPTEQFDSVVLIEEGRLSQRSDAFIRLMAQLPAPWRWLRLLRGVPRPLRDWVYDLIARNRYRLFGRLDVCLLPSPDHQGRFLDDPSLEHHHHHH” here?
A: not soluble

Q: Which “soluble on expression in E. coli” value does the source give for “MGSDKIHHHHHHMITIKKGLDLPITGEPSREISEHRPAHVALIGYDYVGMKPTMNVKEGDIVAKGQSVFEDKKRAGVIYTAPAAGKVVAIKRGERRVFESLVIAVDPNGAEVEFQRYDSQQLADLDSEVVETQLLASGEWTAFRTRPYSRAPEIGARPHAIFVTAMDTNPLAFDPMLLINEQLQAFNDGLAVLSTLSPKTFVCHHGNSQLTPVAKTAANNVTEYHSFAGKHPAGLAGTHIHFLHPIMRGTSVWTIGYQDVIAIGKLFTSGRLYTRRLLSLAGPAVSNPHVIATERGADIAALTKGNLTAGENRVISGSVLSGRQVFANIAYLGRFDNQVSVLAEGRERPAFHFFTPGANRFSKLPIYISQFFGGKKYNFTTTSNGSPRAMVPIGVYEEVMPQDYLPTQLLRALIVEDIVTAVDLGVLELDEEDLALCTFVSPGKYEFGDILRDNLTRIELEG” here?
A: not soluble

Q: With “MGSDKIHHHHHHMFYFTVNNPQDPLSTEIVETNRRDLAFWHRLRPKDDDDLATAINKICVRTGLSRKLIAACLFSICFLPYLPNFHKLVEKLGHLDMARINAITKAGEKVPSEKRELFDAYLVDYLTPRAEAQCLPQASSISAMMRKFIAQHCPDDKASSATNDGSIRYRRNNKGGISITVDATASEVTEIKAALEQMSKDKDCTPGTSLLHIIRGLPTKVVLNTYGTKDSPEYLEGGTWLSKEQSEFWKTRTTSSRDMDAAHFSYTTAYAPTREMRVYIKGLRTTCSVPGCSVAVENCQLDHIIPWGEGGPTTPWNIHPLCVFHHIQKTEGRLQCYPLPDGTVLFLVDGIPVFSIPDGPLSKSNKTWGTKFGKYMERRIAA” as the sequence, how does the “soluble on expression in E. coli” value read?
A: not soluble

Q: Which “soluble on expression in E. coli” value does the source give for “MSGDDYMGAMALLGIKPDTDPLSIKRAYRRLLSRHHPDKIAGSGANAQQVRVATEKTSELHNAYRVVKARRGFALEHHHHHH” here?
A: not soluble

Q: For “MGCYHPLSGTDGTLMRHTLPIAPQFYVTAPQPCPYLAGRMERKLFTALQGEGAERLNNALSQQGFRRSQNVLYRPSCADCAACLSARIDVSAFRASRSQKRAMRRNAHLTRRATSPWATDEQYELFRRYLDSRHADGGMADMDVFEFAAMIEETPIRSRVIEYAHRDTRALIGVSLTDVLDDGLSMVYSFYDPDLHRDSLGTHMILDHIAIAREAGLPYVYLGYWVPGSPKMGYKSRFSGLEIYLGGRWQAMTDPEAHDAIRHPLSTDPIAEQVANIQLPDRWPTGDLEHHHHHH”, which “soluble on expression in E. coli” value is on record?
A: not soluble

Q: Which “soluble on expression in E. coli” value does the source give for “MSSSHSRAGQSAAGAAPGGGVDTRDAEMPATEKDLAEDAPWKKIQQNTFTRWCNEHLKCVSKRIANLQTDLSDGLRLIALLEVLSQKKMHRKHNQRPTFRQMQLENVSVALEFLDRESIKLVSIDSKAIVDGNLKLILGLIWTLILHYSISMPMWDEEEDEEAKKQTPKQRLLGWIQNKLPQLPITNFSRDWQSGRALGALVDSCAPGLCPDWDSWDASKPVTNAREAMQQADDWLGIPQVITPEEIVDPNVDEHSVMTYLSQFPKAKLKPGAPLRPK” here?
A: soluble

Q: Which “soluble on expression in E. coli” value does the source give for “MGISEIIRSHRKKENLTQEQVANYLNISTPAVNKWENGITYPDITLLAPLARILKIDVNTLLAFNEELTEKEVNKLGRSVGEIVEKEGYQKAFEKGSDLIKQYSSCDELILRISSILRLFLVTAKVEKKDIYEDKIIAWAEIVAASRNEKTADMAKIFLSAVYRDKKEYKKAKEILDKVPDMELGSDKKIQQLLLLESSGEFDKAYGACEEVLLYNAQESLGAMVLIIRMLLKENKFSEAEEYTQRAKKLVEVFDLGEYSKYTLELSLIKEKRDEEKAVELIRNMIDNADSMNNFMRSKLYKHRKIEVTNSLDKDRYKKIVRMSIIKDKALDFVKDDPRVKSLLK” here?
A: not soluble

Q: Which “soluble on expression in E. coli” value does the source give for “MNEVLRQEKKYLISLEDYYLLSKKFSQVMTLDSHSSDDGYTIRSLYFDSLEDVDWQEKEDGVEIRRKIRLRNYGSQSNFAKLEMKQKQGANQKKRSLKLSKTDAQALINGNNSVLLNYPDTFAAECYSRITTQLYQPKTVIEYQRKAFVAKENNIRITFDHHIIGTEASYDIFSEDLNQNYLLDPYLVILEVKYNGFLLSYIKELLDSVDRSELSASKYCLGRAVSKHYRFLEHHHHHH” here?
A: not soluble

Q: Which “soluble on expression in E. coli” value does the source give for “MSLSDTEKKIADTKGQFLQAVSQGQRLTDAEWRNCRIVLTTERVALLGDDKRQISLTDIDRIADRFDVNQQSAGVSDYVALYVGEDVILVSASDHGTFETDFYRASLDGAIVLVQHPALKGGVVQSAEWTKGRLKVTDEALKLAMADGQAVVIDRADIGDLAVEEKQVSGEERTVIQVEHSEEDISVETHLAGEEFHATVLRTMLEESAEQNQADLDLSSTEKRVIMALHSGVSPFDIPNFVGIDVEKTEEIFDRLIELDVISVLRERTEVNLTTKGRRVAGERMGEQEGHHHHHH” here?
A: not soluble

Q: With “GAEDHANHEHDDEMSAAAAHGVESLIYRRDTPFHPVRFNDWLDDWDGAIVRAKGFAWVASRPETVLGVSQAGPSVQAGPIGEWGNDDPSTRLVFIGQEMDGDALIGELDDCLATDKERTETFASDPFPREG” as the sequence, how does the “soluble on expression in E. coli” value read?
A: not soluble
